Experimental data published in the domain aggregation screens of Martell et al. (2025).

Assay: soluble fraction after stress (log2 fold change); higher = more stays soluble; pooled small domains, quantitative proteomics
Details: stress: pH 4
How it was run: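 Following acid stress at pH 4, the amount of each small protein domain still soluble was measured in pooled custom libraries by high-throughput quantitative proteomics. Its fold change, on a log2 scale, is higher when more of the domain stayed soluble. This fold change is taken as a measure of aggregation propensity.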

Sequence | soluble fraction (log2)
HMGNEEEEAIREAEEAIERVLEYGEPQELNPQNGFIRRLQHQLAEKSHLSSESVGVEPYRRVRISK | -0.00812
HMGNFFDSAILALKNAIQENYGGNVSQAARSLGISVPTLHTWIKGDRKPSLEKLSPILDALNAKIVL | -0.276
HMGNFGDLLKILLDEKELSMGELSKKSGIDKSTISRIANNKQKPNINHLEKMAIHLNINLEELLKASGYEF | -0.857
HMGNFQNIFRKLRTSSNLTQNAIAEKLGISRSTIGMYETGAREPDFETLEKIADYFNVDTDFLLGRTNQTT | -0.0101
HMGNKDAQLVHLAKMNEIQIELMKTGRGYMVTDQNVYNLAKKMGENMGFKHPDLFLTDPAKV | -0.0687
HMGNKDIEILFSEIVEMRNRIIHGFRITSKQGEQILATKTRKKDGNIQFEITKEYLLDFIKKNEELSDMLY | -1.49
HMGNKWALLVVFILNENGSTRFNQLARQIPDISTKVLSNTLQILEADGLVKRTVFPEVPIRVEYELTATGK | -0.987
HMGNLIIFYDEGIGSGPLMKAVNDSGVSLVYEYKNLHGIAIRPSAKTNIQDAIAYFQKVNGVLSVEQ | -0.65
HMGNNKLVLSLAVALKNTPNFLKNYNYKISKDKKFIEILLSKQINEVSDIIINLKKNNINIVDLNIKKR | -0.0131
HMGNNTEITYSEFIRQAEAGNVQYVTVDGEKLLISATDGKSYYTINPRDDQMTDRLLNSGVEIRAEPQ | -0.482
HMGNRQEQVRIIRDLWRQLADAGQPVPAKHLTLDLDALDATQLTKLEDQAHGWLAKLSAQADLADAA | 0.22
HMGNTMIVILKHEARQEQIDRLKQFLLGMGLRIDESKGENSTILGLVGDTTRVDADLISSLDAVEAVRRV | -0.626
HMGNWENVEKETTEAIMAVKNGEAVWVDLAPANRMIRQMQHELVEQYGLLSQSYGKEPKRRIRIFQNP | 0.0117
HMGPDALSIGRRVRQVRTARGMTLDELAAAVSRAPSQLSMIETGKREPKLSLLQAIARALGTTIDALLT | 0.126
HMGPDGLFAKFREPETGKDLLITQNVFVEQVLIKGVLTRTLTDAEANTYRAPFVNPEKRFPIYVWPNELP | -0.0131
HMGPEAFPVPYIVDIELDRAIYVIEQSGFIVGQKLEANDDNVPRGFVISQNPAAGTKLGPNSVVDLVISSG | -0.893
HMGPEQLIGKTGIAASELAPRGEVKIEGQIWRAETVGDHVKQGEPVEVVSREGLILRVKPKHPQTRG | -0.0209
HMGPEVQLAYSEFLAKVKVGEVNDVMVKGNEIHGHFSDGRTFSTYSPNDPDLVEKLNKNKVMIKAAPP | -0.0878
HMGPFYFDQDGKAYSGLLNRNGEILYFADPFNAAVKNTTKTIDGKTYTFNQNGRATSIDGIPLEPP | -0.17
HMGPGDTTIPTTIIGMSLEEARNELSAAGLLVARIIPVDSNSRTGTVLKITPDAGSIIKAGSGVELEIAS | 0.206
HMGPGFVGGSVLSGGNRGEGDPVANAQVFITDMDDNVVAFTKTDAEGNFDMTNLAYGDYKMYVDILNK | -0.741
HMGPGSYVVNVKPYAYVSINGRDYGRTPVGPIRLDPGTYKVVFTHEHRPSFSRTIVVEAGRETFETFPYPG | -0.107
HMGPLPIDSRYFNNLVPYTGITHVNSVIPEAERHIGLTVVVKTGSTYSEYWYRTGVTNSSLELKT | -0.726
HMGPLYARVKAIVLARIMGGDWPPGTALPAEMELARALGVSQGTVRKALDALTAEQVVVRRQGSGTYVAE | -0.158
HMGPNYYDILEIPTDASPSEITQAFRKKALEWHPDKNPNNLEEATSRFIEIVEAYRVLSSKDSKLQYDTG | -0.422

Sequence | soluble fraction (log2)
HMGPSVGMTVGEMERDLIFRTLETVGDNRTKAADMLGISIRTLRNKLNEYREAGFEWPRKAG | -0.0611
HMGQAVTMLKAGRLLANAKGTGAPVRSLEPGMLLYPTGVKEGTMWEVEDEMGNKGWVNSTLMETA | -0.284
HMGQAVTVPELKGLSFDEAIEKLDDAGLKYEVVDSNYVEDMKPGTVFETLPEAGSRVKPRRIVFLTINAF | -0.689
HMGQDTTIVVRRGESLLGIAARLLPATDFYTTGELAEGIRTASGMENDRLIPGQTLRVPLNSG | 0.0588
HMGQGEISVPRLEGLSLRETSELLGLFGLRLEAAGSGIALSQNPPAGARVKAGDVIQVDFGEPGN | 0.0931
HMGQHSAELKLHPQDLGQVTISMKVEDNQAQLQMVSGHGHVRAALEAALPQLRSQLADSGIQLTQSSIS | -0.223
HMGQISDEETLKTVASRIIDANPDEARKYRSGKTGLLGFFVGQVMKATQGEANPKLASRIVKELLE | ≥ 0.43
HMGQLIVTIPNFERRPAEQAIQKLEELGLVPEEKQIYHDDIPAGSVIYTDPSKDSQVNAGTKVYVYVSLG | -0.0832
HMGQMGHAVVAKTDLAVGTPLTRDLVAVREVPVEWLHSSAITPEQFERAAGAVLAQPARGGEPLVWSQLEE | -0.201
HMGQPRPLTAEDFDFLSDDEIAEMRKALSNGEMLRLRELIAQIGEKRPFLAERLLVLAKQYNYEDLSRLLE | -0.831
HMGQQPPVTEIYKNHDGNKDGLLEAGEVTGSRYARQFPRWDVNGDQKVSPQEVIAFRKRFGIAADGTLL | 0.0862
HMGQQTVEPLSRRELEVLSLLAKGLSNQQIADRLVISVRTVKKHVENIHGKLGVQSRTQAVARARELGLV | -0.688
HMGQTYTITINPTPADAKVIIDGVATNSVEAIDGRTLIWSVSKPGYLTKSGNYTVTGKNETLNIVLKEDPD | -0.283
HMGQVLEGVFRRKANGKNAFIPDGGGEPILVAERNSAHAMDGDRVKATLLARRKHHVREAQVTEILKRSSK | 0.0841
HMGQVSDENQLNKVIDEVIKNYPIQVEQFKAGKEPILQFLKGMVMKATEGSADPAVAEKLLRKKL | 0.0192
HMGQYLDAATVAAVYHAYHARNWTQATLAKELKVARPTLSNVLNGREAPSVELAARIRAFLGSPEP | ≥ 0.43
HMGRAAEETETFRTQGELDARIKELQGQMRDAAANLEFERAAGLRDTLKRLRTRGLGLSASP | -0.0313
HMGRENGTVKWFNTSKGFGFITRDDGGDVFVHFRSIQGEGHRALQEGQRVSYVVANRDKGLQAEDVTILN | -0.107
HMGRKRLADYGLNDTEQKIVRKIADGLSNREIAQALYLSEGTVKNYITDILGKLELRDRTQIAIFYLREIG | -0.244
HMGRLTTKIVLYDRIENIVPERRKELVADIEKRIGVKVEVLEIGHVDFVRDAAWLKVSYYLAPGE | -1.35
HMGRNSTPKEPLKKFEVSPITEKEVRILDGRFGPYITDGATNVTVPKTITIEEITFERALDMLAEKAAKGP | -0.153
HMGRPQISDELRNAIIEVAKDNRDWGYIRIQGQLKYLGYRVSTATIGKVLKKAGLEPQPDRRRK | -0.667
HMGRPWRIGDVVNVSRPTGDGGGFTKGLITRIYPTTVQVTWNPDLQHARPWTTMEKKQYLIFVYHDDE | ≥ 0.43
HMGRQTITLPDFSGQDLEQVKARLTEWGLVPEEKSVFSDSVPLGSVVRTVPAEGDEVSVGDTVTVYKSLGR | 0.252
HMGRRDLSWQPAAGGVSIDGLKAGEAWTLFGLNGRILKQGYAPEGQMSLAVNAGLFVLRGAESGVIRIAVA | -0.255

Sequence | soluble fraction (log2)
HMGRSYTIKSGDTLWAIATRYYGNGAQYSKIYNANKGTIESVAKSRGFRSSQNGHWIFPGTSITI | 0.056
HMGRTITVGIAEDADIKDIAKMLEEKGLISDYRLFVVQELLSAQHDKIKPGIYDLSTDMKAEEMLEILAG | -1.33
HMGRTKEEIFNILKERIVTLQYEPGKILNEIELSEEFEVSRTPIRTVFQQLEAVKLVSIVPRYGVQVA | -1.11
HMGRYATVPDVVGSTPEVARELIRSEGLRYVLSEETVYSDSDTGTVGRTDPESGTRMSADDEVVVYLS | -1.27
HMGRYVIQIASFSSKNNAIEAADKLGGFVVQSGRFYRVRTGPFATRGEADAALASARRVGYRDAFIDTS | -0.233
HMGSAIAHAIASLPDRYRELLLLKYDTGYSEKEIAQLLGMTEANVKKTIQRAKAKLQTLLDEMEA | -0.354
HMGSAKAQLYDLMNAHQVTRNQIQDIVAEKGYFPAGTPIENYPDDFVKGVLVGAWDQVHKAILDKEI | -0.437
HMGSEISLNAFNIPKGSVSVTAGGTKLVENQDYTVDYTLGRIKILNEGILNSGVPIQVNFENNTLFN | -0.087
HMGSEYILTIIPTPADATVFINGVKKNSASGVNGQILSWEVTKEGYIPQSGTFTINGKNETIEVVLQPQT | -0.577
HMGSFFSKATAPVRTTGGDGLYKHGSIWFNTSTGRLFVYIPDDRYTGLLDTHNGDIGYWVDVS | -1.22
HMGSFGAMLKRNRKLAGLTQEQLAEKLDVSTVAVQNWESGKNQIRSEKLTKLSYLFNIPLETLIHEMLIS | 0.0247
HMGSFISADEALAKALSHAGLDQSAIRELEMDSELDDDVPHYSIDFKSGNLEYEYEISATDGSVLKFEQD | -0.0935
HMGSKEQELVILNNILERQLQAINLQKSAAGPMVNLRNVHNTLTKLVEAAGLKNVETYFTDPVIGAAQ | -0.543
HMGSNTLEDAYKVLGITPDATDDEVRKAYKKMVIQHHPDKVANLGEDVKKAATIKLQEINNAKEIIFKARN | 0.192
HMGSQSYVAIVNERFKESDIVELGGSVGSRTGDIITLHFRNSSPNELKNITGIVYLQVANKVTPKL | -0.875
HMGSTDTLEDALEAAEKISYPVIIKATAGGGGRGMKVASSLEELKKVYHTTKLEAKNAFGNDQVYIEKYL | -0.0649
HMGSTYGISRVDNETSRTHGWLVTIQRRGVIYRKHFSDGVFGGKQRSFAAAKEYRDEVIAAHP | -0.00453
HMGSVVATLRKLIIDGHYPAGTRLAEIPVANALGVSRTPVRLAFRTLQQEGLLQTVGKRGIVVRAF | 0.137
HMGSWDDFFNAIRLDNPNTLQALLQRGFDPNTVDQQGTPALMRALQEQSYRAAEVLADHPQI | -0.584
HMGTAGLSPWHKIAVLMIALGPEGASELMRHFGEDEVEQVVQAIADLKNVPSELQDAVLLEMEGALQEG | -0.796
HMGTDVFIMTGGTRKRGATWSYYFDLGKIDGKRQKKEKGGFKTKKEAETALAKAINEYNNAGA | 0.175
HMGTFIATVEANSLDIYKSMSSNETIGKANKGEVFQILEDMGSGYARVSYNDVEGYLSIRDGDATIEE | -1.54
HMGTGADQVSWKTGDKVTHKKWGEGTVVKVSGSGNDKELDIAFPQQGVKRLLASFAPIKKVT | -0.0102
HMGTGQTNEKLAVLTNIQKTQEQILLTLGAKNPLVNLKQYRETLAKILSLSGYKNSNEFFLDPM | -0.25
HMGTGTYQVWSANGLGVRMRSGPGTGYRILAVYSVGTSVTVLQKGAYWSYIRVGSRTGYMMNQFLVSG | -0.268
